Assay results as given in CN113150152A (UNIV XI AN JIAOTONG, dated 2021).

How the values were obtained:
[1] = target: T1, 人TIM-3重组蛋白 (T cell immunoglobulin domain and mucin domain-3) (human, UniProt Q8TDQ0 22-202, limits assumed); assay: ELISA, coated TIM-3 recombinant protein, serially diluted nanobody, anti-his detection, GraphPad least-squares fit
T1 construct: Recombinant protein coated on 96-well plates; The construct is not described; also called TIM-3蛋白

[2] = target: T1, 人TIM-3重组蛋白 (T cell immunoglobulin …); assay: same number as the ELISA EC50 of paragraph 67, here called KD

- EC50 [1]: 76 nM
- Kd [2]: 76 nM
B1: NbR2G3 (抗人源T细胞表面抑制性分子TIM-3的特异性纳米抗体) (VHH)
VHH: QVQLVESGGGLVQAGGSLRLSCAASGRTISNYNMGWFRQAPGKEREFAAITRSGGSTYYADSAKGRFTISRDNAKNTVYLQMNSLKPDDTAVYYCDAIPEGLVGRNLGYWGQGTQVTVSS
